Data: patent publication US20210388040A1

Columns and labels:
ACTL6A (human) [1] = biological target: ACTL6A (human) (UniProt O96019); assay: HA-bait purification from HEK-293T nuclear extract, mass spectrometry, peptide count
BCL7A (human) [2] = biological target: BCL7A (human) (UniProt Q4VC05); assay: as above
BCL7C (human) [3] = biological target: BCL7C (human) (UniProt Q8WUZ0); assay: as above
GLTSCR1 (human) = GLTSCR1 (human) (UniProt Q9NZM4); assay: as above
GLTSCR1L (human) = GLTSCR1L (human) (UniProt Q6AI39); assay: as above
SMARCA2 (human) [4] = biological target: SMARCA2 (human) (UniProt P51531); assay: as above
SMARCA4 (human) [5] = biological target: SMARCA4 (human) (UniProt P51532); assay: as above
SMARCC1 (human) [6] = biological target: SMARCC1 (human) (UniProt Q92922); assay: as above
SMARCD1 (human) [7] = biological target: SMARCD1 (human) (UniProt Q96GM5); assay: as above
SS18 (human) [8] = biological target: SS18 (human) (UniProt Q15532); assay: as above
ACTL6A (human) [9] = biological target: ACTL6A (human) (UniProt O96019); assay: HA-bait purification from HEK-293T nuclear extract, glycerol gradient fractions 13-14, mass spectrometry, peptide count
ARID1A (human) = ARID1A (human) (UniProt O14497); assay: as above
ARID1B (human) = ARID1B (human) (UniProt Q8NFD5); assay: as above
BCL7A (human) [10] = biological target: BCL7A (human) (UniProt Q4VC05); assay: as above
BCL7C (human) [11] = biological target: BCL7C (human) (UniProt Q8WUZ0); assay: as above
SMARCA2 (human) [12] = biological target: SMARCA2 (human) (UniProt P51531); assay: as above
SMARCA4 (human) [13] = biological target: SMARCA4 (human) (UniProt P51532); assay: as above
SMARCB1 (human) [14] = biological target: SMARCB1 (human) (UniProt Q12824); assay: as above
SMARCC1 (human) [15] = biological target: SMARCC1 (human) (UniProt Q92922); assay: as above
SMARCC2 (human) [16] = biological target: SMARCC2 (human) (UniProt Q8TAQ2); assay: as above
SMARCD1 (human) [17] = biological target: SMARCD1 (human) (UniProt Q96GM5); assay: as above
SMARCD2 (human) [18] = biological target: SMARCD2 (human) (UniProt Q92925); assay: as above
SMARCD3 (human) [19] = biological target: SMARCD3 (human) (UniProt Q6STE5); assay: as above
SMARCE1 (human) [20] = biological target: SMARCE1 (human) (UniProt Q969G3); assay: as above
SS18 (human) [21] = biological target: SS18 (human) (UniProt Q15532); assay: as above
SS18L1 (human) = SS18L1 (human) (UniProt O75177); assay: as above
ACTL6B (human) = ACTL6B (human) (UniProt O94805); assay: HA-bait purification from HEK-293T nuclear extract, mass spectrometry, peptide count
ARID2 (human) = ARID2 (human) (UniProt Q68CP9); assay: as above
BCL7B (human) = BCL7B (human) (UniProt Q9BQE9); assay: as above
DPF2 (human) = DPF2 (human) (UniProt Q92785); assay: as above
PBRM1 (human) = PBRM1 (human) (UniProt Q86U86); assay: as above
PHF10 (human) = PHF10 (human) (UniProt Q8WUB8); assay: as above
SMARCB1 (human) [22] = biological target: SMARCB1 (human) (UniProt Q12824); assay: as above
SMARCC2 (human) [23] = biological target: SMARCC2 (human) (UniProt Q8TAQ2); assay: as above
SMARCD2 (human) [24] = biological target: SMARCD2 (human) (UniProt Q92925); assay: as above
SMARCD3 (human) [25] = biological target: SMARCD3 (human) (UniProt Q6STE5); assay: as above
SMARCE1 (human) [26] = biological target: SMARCE1 (human) (UniProt Q969G3); assay: as above

SMARCB1 (human), sequence (Q12824 whole entry): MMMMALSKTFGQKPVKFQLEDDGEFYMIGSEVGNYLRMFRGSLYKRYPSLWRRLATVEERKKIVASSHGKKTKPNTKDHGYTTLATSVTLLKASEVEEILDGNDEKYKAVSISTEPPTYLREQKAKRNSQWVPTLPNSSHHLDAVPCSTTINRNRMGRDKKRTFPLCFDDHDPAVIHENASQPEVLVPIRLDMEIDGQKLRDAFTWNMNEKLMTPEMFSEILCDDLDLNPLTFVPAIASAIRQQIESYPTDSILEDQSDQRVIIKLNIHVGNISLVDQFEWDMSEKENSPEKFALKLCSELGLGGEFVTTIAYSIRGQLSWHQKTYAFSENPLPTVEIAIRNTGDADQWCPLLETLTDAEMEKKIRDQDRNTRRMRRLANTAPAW
SMARCD1 (human), sequence (Q96GM5 whole entry): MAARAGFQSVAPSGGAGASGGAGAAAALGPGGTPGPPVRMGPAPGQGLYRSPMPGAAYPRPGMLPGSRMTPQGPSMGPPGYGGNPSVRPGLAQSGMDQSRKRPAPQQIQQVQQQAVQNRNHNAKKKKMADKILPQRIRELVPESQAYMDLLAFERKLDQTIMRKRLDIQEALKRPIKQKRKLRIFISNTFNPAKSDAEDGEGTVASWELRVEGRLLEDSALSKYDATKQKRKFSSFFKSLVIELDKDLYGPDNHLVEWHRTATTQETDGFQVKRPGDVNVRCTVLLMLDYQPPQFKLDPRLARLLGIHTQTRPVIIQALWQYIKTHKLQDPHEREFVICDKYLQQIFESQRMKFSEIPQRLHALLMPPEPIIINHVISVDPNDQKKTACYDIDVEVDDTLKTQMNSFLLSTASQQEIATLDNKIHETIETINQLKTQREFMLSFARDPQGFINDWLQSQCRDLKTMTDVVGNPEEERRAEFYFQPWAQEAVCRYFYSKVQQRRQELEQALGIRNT
SMARCE1 (human), sequence (Q969G3 whole entry): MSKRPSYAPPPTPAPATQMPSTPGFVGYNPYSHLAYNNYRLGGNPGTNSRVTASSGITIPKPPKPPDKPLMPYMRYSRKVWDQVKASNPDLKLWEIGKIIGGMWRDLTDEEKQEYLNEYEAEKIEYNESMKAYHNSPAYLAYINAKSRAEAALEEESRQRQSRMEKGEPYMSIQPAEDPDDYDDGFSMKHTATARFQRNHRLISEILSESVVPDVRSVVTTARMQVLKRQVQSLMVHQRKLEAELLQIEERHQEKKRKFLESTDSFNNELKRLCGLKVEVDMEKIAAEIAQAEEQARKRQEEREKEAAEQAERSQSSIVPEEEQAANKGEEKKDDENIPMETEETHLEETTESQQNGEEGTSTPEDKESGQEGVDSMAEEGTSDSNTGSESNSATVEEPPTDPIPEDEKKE
SMARCD3 (human), sequence (Q6STE5 2-483 limits assumed): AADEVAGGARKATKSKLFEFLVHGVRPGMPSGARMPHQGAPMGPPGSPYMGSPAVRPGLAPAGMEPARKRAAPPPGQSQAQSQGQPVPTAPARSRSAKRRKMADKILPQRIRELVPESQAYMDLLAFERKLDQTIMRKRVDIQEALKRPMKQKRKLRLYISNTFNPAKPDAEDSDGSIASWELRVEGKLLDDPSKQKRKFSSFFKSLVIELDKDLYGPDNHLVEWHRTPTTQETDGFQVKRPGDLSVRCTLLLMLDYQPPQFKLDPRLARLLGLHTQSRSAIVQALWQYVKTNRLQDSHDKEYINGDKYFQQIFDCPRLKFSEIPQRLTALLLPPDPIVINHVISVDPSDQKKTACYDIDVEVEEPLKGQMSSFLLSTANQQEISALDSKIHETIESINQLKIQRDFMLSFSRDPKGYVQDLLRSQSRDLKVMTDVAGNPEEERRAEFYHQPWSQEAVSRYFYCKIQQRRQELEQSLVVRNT
SMARCA4 (human), sequence (P51532 whole entry): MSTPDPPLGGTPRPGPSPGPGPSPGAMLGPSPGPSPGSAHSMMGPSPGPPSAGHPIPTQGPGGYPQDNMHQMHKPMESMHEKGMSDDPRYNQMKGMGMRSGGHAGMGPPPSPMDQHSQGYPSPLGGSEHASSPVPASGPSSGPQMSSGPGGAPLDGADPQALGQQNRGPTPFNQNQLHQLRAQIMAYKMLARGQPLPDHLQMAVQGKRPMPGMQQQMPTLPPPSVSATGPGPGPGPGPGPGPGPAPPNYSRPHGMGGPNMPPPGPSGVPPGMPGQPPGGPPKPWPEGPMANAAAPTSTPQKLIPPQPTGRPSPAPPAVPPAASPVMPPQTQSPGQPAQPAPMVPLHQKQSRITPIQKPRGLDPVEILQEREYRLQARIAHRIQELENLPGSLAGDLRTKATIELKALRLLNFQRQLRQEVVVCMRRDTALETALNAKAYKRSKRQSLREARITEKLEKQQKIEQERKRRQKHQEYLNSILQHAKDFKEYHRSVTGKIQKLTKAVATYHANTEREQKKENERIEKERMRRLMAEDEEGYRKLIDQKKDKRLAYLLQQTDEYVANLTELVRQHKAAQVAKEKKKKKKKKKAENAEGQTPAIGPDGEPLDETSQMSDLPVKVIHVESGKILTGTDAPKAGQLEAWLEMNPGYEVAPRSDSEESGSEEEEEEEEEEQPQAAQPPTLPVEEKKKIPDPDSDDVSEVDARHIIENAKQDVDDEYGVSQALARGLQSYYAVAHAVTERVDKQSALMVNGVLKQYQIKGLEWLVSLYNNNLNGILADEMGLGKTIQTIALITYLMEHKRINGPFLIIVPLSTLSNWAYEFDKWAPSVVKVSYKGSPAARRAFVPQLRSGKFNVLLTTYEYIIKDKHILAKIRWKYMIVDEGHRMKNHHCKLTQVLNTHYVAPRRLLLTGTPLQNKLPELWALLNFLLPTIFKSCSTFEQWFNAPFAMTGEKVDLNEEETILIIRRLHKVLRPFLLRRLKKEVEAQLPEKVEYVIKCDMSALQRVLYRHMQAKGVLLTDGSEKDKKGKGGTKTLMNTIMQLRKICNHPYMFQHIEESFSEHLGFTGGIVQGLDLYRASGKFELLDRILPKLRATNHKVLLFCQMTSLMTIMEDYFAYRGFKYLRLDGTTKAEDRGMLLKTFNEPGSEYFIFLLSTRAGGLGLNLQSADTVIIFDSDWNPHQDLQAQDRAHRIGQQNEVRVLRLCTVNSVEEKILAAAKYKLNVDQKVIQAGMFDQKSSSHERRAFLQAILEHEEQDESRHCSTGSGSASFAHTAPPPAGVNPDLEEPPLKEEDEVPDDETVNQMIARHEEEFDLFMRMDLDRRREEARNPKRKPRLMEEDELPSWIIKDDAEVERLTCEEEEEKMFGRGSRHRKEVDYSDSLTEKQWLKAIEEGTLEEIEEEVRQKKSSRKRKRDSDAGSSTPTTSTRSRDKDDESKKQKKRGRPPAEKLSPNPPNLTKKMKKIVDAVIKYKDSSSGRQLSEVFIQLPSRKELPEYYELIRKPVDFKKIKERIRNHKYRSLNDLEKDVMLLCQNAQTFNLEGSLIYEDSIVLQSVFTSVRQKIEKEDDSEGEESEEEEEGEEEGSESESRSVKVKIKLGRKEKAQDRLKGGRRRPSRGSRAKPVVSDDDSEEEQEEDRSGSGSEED
SMARCC1 (human), sequence (Q92922 other isoform, or with tags, fused parts or gaps limits assumed): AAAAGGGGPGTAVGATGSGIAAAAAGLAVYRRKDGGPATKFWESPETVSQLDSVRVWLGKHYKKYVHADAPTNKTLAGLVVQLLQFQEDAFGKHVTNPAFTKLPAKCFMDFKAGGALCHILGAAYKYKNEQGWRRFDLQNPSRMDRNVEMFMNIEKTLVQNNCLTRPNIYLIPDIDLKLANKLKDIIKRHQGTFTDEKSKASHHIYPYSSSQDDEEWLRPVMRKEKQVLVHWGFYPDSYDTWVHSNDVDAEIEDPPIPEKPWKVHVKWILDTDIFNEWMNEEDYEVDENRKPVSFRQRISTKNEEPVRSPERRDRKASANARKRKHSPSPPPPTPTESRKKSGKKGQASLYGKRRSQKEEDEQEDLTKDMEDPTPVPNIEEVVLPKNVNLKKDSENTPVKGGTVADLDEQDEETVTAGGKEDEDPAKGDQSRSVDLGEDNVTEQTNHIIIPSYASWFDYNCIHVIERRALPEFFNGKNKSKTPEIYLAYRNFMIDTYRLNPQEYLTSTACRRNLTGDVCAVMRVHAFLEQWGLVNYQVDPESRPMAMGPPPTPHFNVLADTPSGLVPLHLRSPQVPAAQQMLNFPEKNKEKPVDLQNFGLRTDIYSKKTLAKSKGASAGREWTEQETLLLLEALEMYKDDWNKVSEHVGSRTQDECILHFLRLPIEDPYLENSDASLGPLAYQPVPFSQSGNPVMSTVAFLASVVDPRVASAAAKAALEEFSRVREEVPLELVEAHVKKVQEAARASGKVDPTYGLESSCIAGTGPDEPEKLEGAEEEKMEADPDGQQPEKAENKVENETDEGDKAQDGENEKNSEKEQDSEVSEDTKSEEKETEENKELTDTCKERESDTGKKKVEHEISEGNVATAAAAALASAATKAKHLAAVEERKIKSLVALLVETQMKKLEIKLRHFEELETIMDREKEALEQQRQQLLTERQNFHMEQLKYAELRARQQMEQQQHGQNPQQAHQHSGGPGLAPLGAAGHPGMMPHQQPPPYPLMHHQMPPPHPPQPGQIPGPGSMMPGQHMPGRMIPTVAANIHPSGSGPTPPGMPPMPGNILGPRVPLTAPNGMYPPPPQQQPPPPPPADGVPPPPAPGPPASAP
BCL7A (human), sequence (Q4VC05 whole entry): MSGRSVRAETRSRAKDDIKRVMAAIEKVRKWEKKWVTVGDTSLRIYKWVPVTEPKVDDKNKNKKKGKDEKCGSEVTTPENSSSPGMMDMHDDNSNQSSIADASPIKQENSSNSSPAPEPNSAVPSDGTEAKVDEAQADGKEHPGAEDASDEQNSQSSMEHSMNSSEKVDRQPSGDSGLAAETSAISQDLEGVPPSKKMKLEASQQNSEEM
BCL7B (human), sequence (Q9BQE9 whole entry): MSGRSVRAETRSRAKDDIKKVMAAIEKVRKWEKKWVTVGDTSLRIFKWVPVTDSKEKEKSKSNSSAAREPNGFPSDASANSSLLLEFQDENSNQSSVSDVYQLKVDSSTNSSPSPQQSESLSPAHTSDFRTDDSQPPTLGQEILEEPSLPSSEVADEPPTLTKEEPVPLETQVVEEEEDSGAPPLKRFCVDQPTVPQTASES

With HA-BRD9 (from UniProt Q9H8M2 1-597) the Unique (ACTL6A (human) [1]) was 10 peptides, the Total (BCL7A (human) [2]) was 6 peptides and the Unique (BCL7A (human) [2]) was 5 peptides. The Total (BCL7C (human) [3]) was 3 peptides, the Unique (BCL7C (human) [3]) was 3 peptides and the Total (GLTSCR1 (human)) was 62 peptides. It also gave a Unique (GLTSCR1 (human)) of 33 peptides, a Total (GLTSCR1L (human)) of 16 peptides and a Unique (GLTSCR1L (human)) of 14 peptides. It also gave a Total (SMARCA2 (human) [4]) of 49 peptides, a Unique (SMARCA2 (human) [4]) of 27 peptides and a Total (SMARCA4 (human) [5]) of 31 peptides. The Unique (SMARCA4 (human) [5]) was 20 peptides, the Total (SMARCC1 (human) [6]) was 53 peptides and the Unique (SMARCC1 (human) [6]) was 36 peptides. The Total (SMARCD1 (human) [7]) was 33 peptides, the Unique (SMARCD1 (human) [7]) was 22 peptides and the Total (SS18 (human) [8]) was 1 peptides. It also gave a Unique (SS18 (human) [8]) of 1 peptides.

HA-DPF2 (from UniProt Q92785 1-391) was tested, and the Total (ACTL6A (human) [9]) was 61 peptides, the Unique (ACTL6A (human) [9]) was 23 peptides and the Total (ARID1A (human)) was 311 peptides. For the same substance, the Unique (ARID1A (human)) was 114 peptides, the Total (ARID1B (human)) was 147 peptides and the Unique (ARID1B (human)) was 85 peptides. It also gave a Total (BCL7A (human) [10]) of 36 peptides, a Total (BCL7C (human) [11]) of 13 peptides and a Unique (BCL7C (human) [11]) of 7 peptides. The Total (SMARCA2 (human) [12]) was 130 peptides, the Unique (SMARCA2 (human) [12]) was 74 peptides and the Total (SMARCA4 (human) [13]) was 88 peptides. For the same substance, the Unique (SMARCA4 (human) [13]) was 47 peptides, the Total (SMARCB1 (human) [14]) was 62 peptides and the Unique (SMARCB1 (human) [14]) was 22 peptides. For the same substance, the Total (SMARCC1 (human) [15]) was 359 peptides, the Unique (SMARCC1 (human) [15]) was 87 peptides and the Total (SMARCC2 (human) [16]) was 105 peptides. It also gave a Unique (SMARCC2 (human) [16]) of 52 peptides, a Total (SMARCD1 (human) [17]) of 83 peptides and a Unique (SMARCD1 (human) [17]) of 37 peptides. The Total (SMARCD2 (human) [18]) was 51 peptides, the Unique (SMARCD2 (human) [18]) was 32 peptides and the Total (SMARCD3 (human) [19]) was 23 peptides. It also gave a Unique (SMARCD3 (human) [19]) of 20 peptides, a Total (SMARCE1 (human) [20]) of 118 peptides and a Unique (SMARCE1 (human) [20]) of 40 peptides. It also gave a Total (SS18 (human) [21]) of 2 peptides, a Unique (SS18 (human) [21]) of 2 peptides and a Total (SS18L1 (human)) of 3 peptides. It also gave a Unique (SS18L1 (human)) of 2 peptides.

In the case of HA-BRD7 (from UniProt Q9NPI1 1-651), the Total (ACTL6A (human) [1]) is reported as 44 peptides, the Unique (ACTL6A (human) [1]) is reported as 28 peptides and the Total (ACTL6B (human)) is reported as 1 peptides. The Unique (ACTL6B (human)) was 1 peptides, the Total (ARID2 (human)) was 157 peptides and the Unique (ARID2 (human)) was 67 peptides. The Total (BCL7A (human) [2]) was 36 peptides, the Unique (BCL7A (human) [2]) was 21 peptides and the Total (BCL7B (human)) was 4 peptides. It also gave a Unique (BCL7B (human)) of 3 peptides, a Total (BCL7C (human) [3]) of 17 peptides and a Unique (BCL7C (human) [3]) of 10 peptides. The Total (DPF2 (human)) was 1 peptides, the Unique (DPF2 (human)) was 1 peptides and the Total (PBRM1 (human)) was 404 peptides. It also gave a Unique (PBRM1 (human)) of 147 peptides, a Total (PHF10 (human)) of 58 peptides and a Unique (PHF10 (human)) of 31 peptides. It also gave a Total (SMARCA2 (human) [4]) of 146 peptides, a Unique (SMARCA2 (human) [4]) of 85 peptides and a Total (SMARCA4 (human) [5]) of 107 peptides. It also gave a Unique (SMARCA4 (human) [5]) of 53 peptides, a Total (SMARCB1 (human) [22]) of 59 peptides and a Unique (SMARCB1 (human) [22]) of 26 peptides. The Total (SMARCC1 (human) [6]) was 203 peptides, the Unique (SMARCC1 (human) [6]) was 83 peptides and the Total (SMARCC2 (human) [23]) was 136 peptides. The Unique (SMARCC2 (human) [23]) was 64 peptides, the Total (SMARCD2 (human) [24]) was 59 peptides and the Unique (SMARCD2 (human) [24]) was 34 peptides. The Total (SMARCD3 (human) [25]) was 23 peptides, the Unique (SMARCD3 (human) [25]) was 20 peptides and the Total (SMARCE1 (human) [26]) was 81 peptides. For the same substance, the Unique (SMARCE1 (human) [26]) was 40 peptides.
